Data taken from publication PMC4398645.

Target: T1, His6-Arc (Activity-regulated cytoskeleton-associated protein, full length) (mouse), Q9WV31
T1 chain: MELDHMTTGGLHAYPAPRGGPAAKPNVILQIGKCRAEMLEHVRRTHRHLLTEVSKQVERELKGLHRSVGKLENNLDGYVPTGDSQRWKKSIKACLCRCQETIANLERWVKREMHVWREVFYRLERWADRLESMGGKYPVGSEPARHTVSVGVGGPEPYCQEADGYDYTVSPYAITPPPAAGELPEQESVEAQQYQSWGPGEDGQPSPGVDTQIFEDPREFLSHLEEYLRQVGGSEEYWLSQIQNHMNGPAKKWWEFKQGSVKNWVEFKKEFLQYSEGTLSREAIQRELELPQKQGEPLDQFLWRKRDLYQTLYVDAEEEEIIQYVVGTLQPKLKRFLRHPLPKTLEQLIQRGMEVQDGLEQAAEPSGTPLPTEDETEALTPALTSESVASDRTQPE
Assay: SEC + other: sucrose density gradient centrifugation
Settings: remark: other sources report otherwise

B1: His6-Arc (Activity-regulated cytoskeleton-associated protein, full length), Q9WV31 1-396 (natural protein)
chain: T1 chain
- stoichiometry N: 2
